This test deals with NL-Rluc virus. In words: Combinectin potency assay: antiviral EC50, NL-Rluc virus in MT-2 cells, luciferase readout. It counts as cell-based, HIV-1. To be noted: Anti-N17 Adnectin, Table 3. Summed up:
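Peptides, serially diluted threefold over 11 points in triplicate, were exposed for 4–5 days to MT-2 cells preinfected 1 h with NL-Rluc virus (MOI 0.01). Replication read out as Renilla luciferase signal, with EC50 derived against untreated infected controls.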

A value given as a limit tells only on which side of the number the result lay.

B1: 127 (protein)
chain: MGHHHHHHGGVSDVPRDLEVVAATPTSLLISWQYKVHPYRYYRITYGETGGNSPVQEFTVPSVLSSAQISGLKPGVDYTITVYAVTYGIESSPISINYRTPGG
modifications: Adnectin
Regarding B1, the concentration for a half-maximal effect (EC50) turned out to be 9 nM.

B2: 128 (protein)
chain: MGHHHHHHGGVSDVPRDLEVVAATPTSLLISWEYKVHPYRYYRITYGETGGNSPVQEFTVPSVLSSAEISGLKPGVDYTITVYAVTYGIDSSPISINYRTPGG
modifications: Adnectin
With B2, the EC50 stood at 18 nM.

B3: 245 (protein)
chain: MGHHHHHHGGSVSDVPRDLEVVAATPTSLLISWKYQVHAYRYYRITYGETGGNSPVQEFTVPSVLSTATINGLKPGVDYTITVYAVTYGIISEPISINYRTEID
modifications: Adnectin
As for B3, the EC50 was 50 nM.

B4: 255 (protein)
chain: MGHHHHHHGGSVSDVPRDLEVVAATPTSLLISWEYKVHPYRYYRITYGETGGNSPVQEFTVPSVLSTATISGLKPGVDYTITVYAVTYGDDSAPISINYRTEID
modifications: Adnectin
As for B4, the EC50 was found to be 136 nM.

B5: 260 (protein)
chain: MGHHHHHHGGSVSDVPRDLEVVAATPTSLLISWEYKVHPYRYYRITYGETGGNSPVQEFRVPSVLSTATISGLKPGVDYTITVYAVTYGDDSAPISINYRTEID
modifications: Adnectin
With B5, the 50% effective concentration (EC50) stood at 188 nM.

B6: 253 (protein)
chain: MGHHHHHHGGSVSDVPRDLEVVAATPTSLLISWEYKVDAYRYYRITYGETGGNSPVQEFTVPSVLSTATISGLKPGVDYTITVYAVTYGDDSAPISINYRTEID
modifications: Adnectin
Take B6: the concentration for a half-maximal effect (EC50) was over 1000 nM.

B7: 246 (protein)
chain: MGHHHHHHGGSVSDVPRDLEVVAATPTSLLISWEYKVNYNRYYRITYGETGGNSPVQEFTVPSVLSTATISGLKPGVDYTITVYAVTEGVQSAPISINYRTEID
modifications: Adnectin
Regarding B7, the half-maximal effective concentration (EC50) was over 1000 nM.

B8: 257 (protein)
chain: MGHHHHHHGGSVSDVPRDLEVVAATPTSLLISWEYKVHPYRYYRITYGETGGNSPVQEFTVPSVLSTATISGLKPGVDYTITVYAVTNGDDSAPISINYRTEID
modifications: Adnectin
Consider B8, for which the EC50 is over 1000 nM.

B9: 250 (protein)
chain: MGHHHHHHGGSVSDVPRDLEVVAATPTSLLISWEYKVHPYRYYRITYGETGGNSPVQEFTVPSVLSSAKISGLKPGVDYTITVYAVTYGDDSAPISINYRTEID
modifications: Adnectin
On to B9, for which the 50% effective concentration (EC50) amounted to 218 nM.

B10: 254 (protein)
chain: MGHHHHHHGGSVSDVPRDLEVVAATPTSLLISWEYKVDSYRYYRITYGETGGNSPVQEFTVPSVLSTATISGLKPGVDYTITVYAVTYGDDSAPISINYRTEID
modifications: Adnectin
With B10, the EC50 was over 1000 nM.

B11: 262 (protein)
chain: MGHHHHHHGGSVSDVPRDLEVVAATPTSLLISWEYKVDGWRYYRITYGETGGNSPVQEFTVPSVLSTATISGLKPGVDYTITVYAVTYGDDSAPISINYRTEID
modifications: Adnectin
Regarding B11, the EC50 is over 1000 nM.

B12: 252 (protein)
chain: MGHHHHHHGGSVSDVPRDLEVVAATPTSLLISWEYKVAHRRYYRITYGETGGNSPVQEFTVPSVLSTATISGLKPGVDYTITVYAVTYGDDSAPISINYRTEID
modifications: Adnectin
Take B12: the concentration for a half-maximal effect (EC50) was over 1000 nM.

B13: 261 (protein)
chain: MGHHHHHHGGSVSDVPRDLEVVAATPTSLLISWEYKVAPWRYYRITYGETGGNSPVQEFTVPSVLSTATISGLKPGVDYTITVYAVTYGDDSAPISINYRTEID
modifications: Adnectin
Turning to B13, the EC50 is over 1000 nM.

B14: 256 (protein)
chain: MGHHHHHHGGSVSDVPRDLEVVAATPTSLLISWEYKVHPYRYYRITYGETGGNSPVQEFTVPSVLSTATISGLKPGVDYTITVYAVTYGDASAPISINYRTEID
modifications: Adnectin
As for B14, the EC50 turned out to be 170 nM.

B15: 267 (protein)
chain: MGHHHHHHGGSVSDVPRDLEVVAATPTSLLISWEYKVHPYRYYRITYGETGGNSPVQDFTVPSVLSTATIRGLKPGVDYTITVYAVTYGDDSAPISINYRTEID
modifications: Adnectin
On to B15, for which the EC50 is over 1000 nM.

B16: 248 (protein)
chain: MGHHHHHHGGSVSDVPRDLEVVAATPTSLLISWEYKVHPYRYYRITYGETGGNTPVQEFRVPSVLSTATISGLKPGVDYTITVYAVTYADASAPISINYRTEID
modifications: Adnectin
On to B16, for which the EC50 is over 1000 nM.

B17: 249 (protein)
chain: MGHHHHHHGGSVSDVPRDLEVVAATPTSLLISWEYKVHPYRYYRITYGETGGNSPVQEFTVPSVLSSATLNGLKPGVDYTITVYAVTYGDDSAPISINYRTEID
modifications: Adnectin
B17: the half-maximal effective concentration (EC50) worked out at 83 nM.

B18: 266 (protein)
chain: MGHHHHHHGGSVSDVPRDLEVVAATPTSLLISWEYKVHPYRYYRITYGETGGNSPVQEFTVPSVLSTATISGLKPGVDYTITVYAVTRGDDSAPISINYRTEID
modifications: Adnectin
With B18, the half-maximal effective concentration (EC50) is over 1000 nM.

B19: 265 (protein)
chain: MGHHHHHHGGSVSDVPRDLEVVAATPTSLLISWEYKVHPYRYYRITYGETGGNSPVQEFTVPSVLSTATISGLKPGVDYTITVYAVTYGADSAPISINYRTEID
modifications: Adnectin
For the molecule B19, the EC50 was determined as 63 nM.

B20: 269 (protein)
chain: MGHHHHHHGGSVSDVPRDLEVVAATPTSLLISWEYKVHPYRYYRITYGETGGNSPVQAFTVPSVLSTATISGLKPGVDYTITVYAVTYGDDSAPISINYRTEID
modifications: Adnectin
Consider B20, for which the EC50 was 184 nM.

B21: 263 (protein)
chain: MGHHHHHHGGSVSDVPRDLEVVAATPTSLLISWEYKVDTWRYYRITYGETGGNSPVQEFTVPSVLSTATISGLKPGVDYTITVYAVTYGDDSAPISINYRTEID
modifications: Adnectin
For B21, the 50% effective concentration (EC50) was over 1000 nM.

B22: 259 (protein)
chain: MGHHHHHHGGSVSDVPRDLEVVAATPTSLLISWEYKVHPYRYYRITYGETGGNSPVQEFTVPSVLSTAKISGLKPGVDYTITVYAVTYGDDSAPISINYRTEID
modifications: Adnectin
With B22, the EC50 turned out to be 135 nM.

B23: 258 (protein)
chain: MGHHHHHHGGSVSDVPRDLEVVAATPTSLLISWEYKVHPYRYYRITYGETGGNSPVQEFTVPSVLSSATIRGLKPGVDYTITVYAVTYGDDSAPISINYRTEID
modifications: Adnectin
As for B23, the EC50 is 195 nM.

B24: 251 (protein)
chain: MGHHHHHHGGSVSDVPRDLEVVAATPTSLLISWEYKVHPYRYYRITYGETGGNSPVQEFNVPSVLSTATISGLKPGVDYTITVYAVTYGDDSAPISINYRTEID
modifications: Adnectin
With B24, the EC50 was found to be 186 nM.

The EC50 is the concentration needed to bring the measured effect to its halfway point.

The values are drawn from US11155602B2, “Polypeptides targeting HIV fusion” (priority 2015, dated 2021).
